Reference: the nanobody polyreactivity screen of Harvey et al. (2022)

Experiment: yeast display, Sf9 membrane polyspecificity reagent, FACS + sequencing; frameworks hold sequencing errors
In short: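 After 36–48 hours of galactose induction, yeast (Saccharomyces cerevisiae BJ5465) displaying a synthetic nanobody library were stained at 4 °C for 1 hour with 10% biotinylated, detergent-solubilized Sf9 membrane reagent. Streptavidin microbeads enriched the stained cells before FACS sorting into low and high (top ~1%) gates on anti-HA and streptavidin fluorescence. Each clone's polyreactivity label reflects its gate of origin.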

Sequence | polyreactivity (PSR sort gate)
QVQLVESRGGFVQARCSLRLSCDASGRIFYYYGMGWYRQAPGKERELVAAITRNTGRTYYADSVKGRFTISRDNAKNTVYLQMNSLKPEDSSVYYFARDRRTWSPYTRAYRRNDYWVQGTQVTVSS | high polyreactivity
QVQLVESGGGLVQAGGRLRLSCAASGSTFLVYAMGWYRQAPGKERELVAVIRWRDGSTYYADSVKGRFTISRDNAKNTVYLQMNSLKPEDTAGYYCAAVYWGEEYEYWGQGTQVTVSS | low polyreactivity
QVQIEESGGGLVQERGSLRLSCAAYGRIFDLYAMGWNRQAPGKERELVATISGSGGSTYYADSVKGRFTISRDTAKNTVYLQMNSLKPEDTAVYNCAAVSVSSWYDYWGQGTQVTVSS | low polyreactivity
QVQLVESGGGLVQAGGSLRLSCAASGRIFDANAMGWYRQAPGKERELVAANSRRGGRTYYADSVKGRFTISRDNAKNTVYLQMNSLKPEDTAVYYCARVPTRAEDVAGWTGMDYWGQGTQVTVSS | high polyreactivity
QVQLVESGGGLVQAGGSLRLSCAASGRIFVRYARGWYSQAPGKERELVAAITSGGRTSYADSVKGRFTISRDNAKNTVYLQMNSLKPEDTAVYYWNVVSRNSIRFDYWGQGTQVTVSS | high polyreactivity
QVQLVESGGGLVQAGGSLRLSCAASGRTFYSYAMGWYRQAPGKERELVATITNGDTTNYADSVKGRFTISRDNAKNTVYLQMNSLKPEDTAVYYCAKDISPGYDEYDYWGQGTQVTVSS | low polyreactivity
QVQLVESGGGLVQAGGSLSLSCAASGRLFKIDAMGWYRQAPGKERELVATISSGGRTNYADSVKGRFTISRDNAKNSVYLQMNSLKPEVTAVYYCNAGARVLYETESFDYWGQGIQVTVSS | low polyreactivity
QVQLVESGGGLVQAGGSLRLSCAASGFNFYSYAMGWYKQAPGKERELVAVTYADSVKGRFTISRDNAQNTVYLQMNSLKPEDTAVYYCAALEYLDGPLSDYWGQGTQVTVSS | low polyreactivity
QVQLVESCGGLVQAGGSLRLSCAASGSIFGYNDMGWYRQAPGKERELVATLTWGGGRTRYADSVKGRFTISRDNAKNTVYLQMNSLIPEDTAVDYCAADKRSYSYVRPPRNHEDYWGQGTQVTVSS | low polyreactivity
QVQLVESGGGLVQAGGSLRLSCAASGRIVRPNAMGWYRQAPGKERELVAAIRSTVGSTFYADSVKGRFTISRDNAKNTVYLEMISLKPEDTAVYDCAAGTSRQFFYWGQGTQVTVAS | low polyreactivity
QVQLVESGGGIVQAGGSLRLSCAASGITFQRNALGWYRQAPGKERELVAAISKSGGSTYYADSVKARFTISRDNAKNTVYLQMNSLKPEDTAVYDCAAPVWRYYRGKTFDFWGQGTQVTVSS | high polyreactivity
QVQHVESGGGLVQAGGSLRLSCAASGRTFVLYTMGWYRQAPGKERELVAAISGSGGRTYYADSVKGRFTISRDNAKNTVYLQMNSLKPEDTAVYYCAAYGQGLPLYGYWGQGTQVTVSS | high polyreactivity
QVQLVESGGGLVQAGGSLRLSCAASGLTFYGNAMGWYIQAPGKERELVAAISSRGGRTYYADSVKGRFTISRDNAKNTVYLQMNSLKPEDTAVYYCNDRYKYPDMDYWGQGTQVTVSS | high polyreactivity
QVQLVESGGGLVQAGGSLRLSCAASGRTFPNYAMGWYRQAPGKERELVAAISYSGGTTYYADSVKGRFTISRDNAKNTVYLQMNSLKPEDTAVYDCNALRLGYGLFHYDYWGQGTQVTVSS | low polyreactivity
QVQLVESGGGLVQAGGSLRLSCAASGSTFIFNAMGWYRQAPGKERELVAGISSGSTYYADSVKGRFTISRDNAKNTVYLQMNSLIPEDTAVYSCATKLRRWRFYAAYDYWGQGTQVTVSS | high polyreactivity
QVQLVESGGGLVQAGGSLRLSCAASGFTIYRNAMGWYRQAPGKERELVARIRRTGGRTYYADSVKGRFTISRDNAKNTVNLQMNSLKPEDTAVYYCAAYPGPGARYYYWGQGTQVTVSS | high polyreactivity
QVQLVESGGGLVQAGGSLRLSCAASGSIIYHYAWGWYRQAPGQERELVDAITRCGGSTYYADSVKGRFTISRDNAKNTVYLQMHSLKPEDTAVYYCAREAGRYAYKYYWWQRTDYDYGGQGTQVTVSS | low polyreactivity
QVQLVESGGGLVQAGGSLRLSCAASGFTFASNCMGWYRQAPGKERELVAVIDWSDDSTYYADSVKGRFTISRDNAKNTVYLQMNSLKPEDTAVYYCKADVWWGGYDYWGQGTQVNVSS | low polyreactivity
QVQLVESGGGLVQAGGSLRLSCAASGRTFERYAMGWYRQAPGKERELVAAISSIGGSTYYADSVKGRFTISRDNAKNTVYLQMNSLKPEDTAVYYCADSVFYYASRYDYWGQGTKVTVSS | low polyreactivity
QVQLVESGGGLVQAGGSLRLSFAASGRIFYSNARGWYRQAPGKERELVATITRSSGITYYADSVKGRFTISRDNAKNTVYLQMNSLKTEDTAVYYWADRYSNRWARVSGYDYWGQGTQVTVSS | high polyreactivity
QVQLVESGGGLVQAGGSLRLSCAASGSTFVVNAMGWYRQAPGKERELVAAITLSTGSTYYADSVKGRFTISRDNAKNTVYLQMNSLKPEDTAVYYCNTEIYVDIISDYGYWGQGTEVTVSS | low polyreactivity
QVQLVESGGGLVQAGGSLRLSCAASGSIFKLYALGWYRPAPGKERELVAAISLSDGGTYYADSVKGRFTISRDNPKNTVYLQMNSLKPEDTAVYYCNKYYWYPYGRAHDYGYWGQGTQVTVSS | high polyreactivity

Sequence | polyreactivity (PSR sort gate)
QVQLVESGGGLVQAGGSLRLSCAASGITFSRYAMGWYRQAPGKERELVAAITARGGTTYYADSVKGRFTISRDNAKNTVYLQMNSLKPEDTAVYYCAAYKTYGSKYVFVDPGEYDYWGQGTQVTVSS | high polyreactivity
QVQLVESGGGLVQAGGSLRLSCAASGSNVYYAMGWYRQAPVKERELVAAINTSGGSTYYADSVKGRFTISRDNAKNTVYLQMNSLKPEDTAVYYCAAVYVGYITGFKRGYWGQGTQVTVSS | high polyreactivity
QVQLVDSGGGLVQAGGSLRLSCAASGRTFRLNDMGWYRQAPGKDRELVAAITRSGGSTYYADSVKGRFTISRDNAKNTVYFQMNSLKPEDTAVYYCNAVRSRYYDDYDYWGQGTQVTVSS | high polyreactivity
QVHLVESGGGLVQAGGSLRLSCAASGRTFYPFGMGWYRQATGKERELVATITYSGARTYYADTVKGRFTISRDNAKNTVYLQMNILKPEDTAVYYCAAGYYWGIGTGFDYWGQGTQVTVSS | high polyreactivity
QVQLVESGGGLVQAGGSLRLSCAASGFTFDVYAMGWYRQAPGKERELVAAIDSGGSTNYADSVKGRFTISRDNAKNTVYLQMNSLKPEDTAVYYCAAPFVGSVVIRRWDEYDYWGQGTQVTVSS | low polyreactivity
QVQLVESGGGLVQAGGSLRLSCAASGITFWGYAMGWYRQAPGKEREFVARINWSGGRTYYAESVKGRFTNSRDNAKNTVYLQMNSLKPEDTAVYYCAATSLIYGYRTYDYWGQGTQVTVSS | high polyreactivity
QVQLVESGGGLVQAGGSLRLSCAASGRIFTGYAMGWYRQAPGKERELVATIRSRGGGTYYADSVKGRFTISRDNAKNTVYLQMNSLKPEDTAVYYCAADDYYYYFGTRYGYWRQGTQVTVSS | low polyreactivity
QVQLVESGGGLVQAGGSLRLSCAASGFILSNYAMGWYRQAPGKERELVAAIRWSGGSTYYADSVKGRFTISRDYAKNTVYLQMNSLKPEDTAVYYCNKVRPFSWYGLDYWGQGTQVTVSS | high polyreactivity
QVQLVESGGGLVQAGGRLRLSCAASGSTFVKNTMGWYIQPPGKERELVAAISSRGGSTYYADSVKGRFTISRDNEKNTVYFQMNSLKPEDTAVYYCAKDGRVSRDFDYWGQGTQVTVSS | low polyreactivity
QVQLVESGGGLVQAGGSLRLSCAASGSTFYFYVMGWYRQAPGKERELVARISWSGGSTYYADSVKGRFTISRDNAKNTVYLQMNSLKPEDTAVYYCARQYKYPSSGEYDSWGQGTQVTVSS | low polyreactivity
QVQLVESGGGLVQAVGSLRLSCAASGRTFYYYAMGWYRQAPGKERELVASITYYADSVKGRFTISRDNAKNTVYLQMKSLKPEDTAVYYCAARANSYHSFTSHYDYWGQGTQVSVSS | low polyreactivity
QVQLVESGGGLVQAGGSLRLSCAASGRTFHYYVRGWSRQAPGKERELVAAISRSGGNTYYADSVKGRFTISRDNAKNTVYLQMNSLKPEDTAVNYCAAALSAYVKWDYYYWGQGTQVTVSS | low polyreactivity
QVQLDESGGRLVQAGGSLRLSCAASGSIFKVNAMGWYRQAPGKERELVAVISKRGGSTYYADSVKGRFTISRDHAKNTVYLQMNSLKPEDTAVYYCAAGKAPPSLRWVARIGKYEYWGQGTQVTVSS | low polyreactivity
QVQLVESGGGLVQAGRSLRLSCAASGRIFRQNAMGWYRPAPGKETELVAAIDWNGTSTYADSVKGRFTISRDNAKNTVYFQLNSLKPVDTAVYYCTARYGRTSPDGDYWGQGTQVTVSS | low polyreactivity
QVQLVDSGGGLVQAGGSLRLSCAASGITFYVNAMGWYRQAPRKERELVASISTGGSTNYADSVKGRFTISRDNAKNTVYLQMNSLKPEDTAVYYCAARVDYHPSLRDYWGQGTQVTVSS | low polyreactivity
QDQLVESGGGLVQAGGSLRLSCAASGSIFAWNAMGWYRQAPGKERELVAVITSGGSTNYADSVKGRFTISRDNAKNTVYLQMNSLKPEDTAVYYCAARSWVYSVIGDYWGQVTQVTVSS | low polyreactivity
QDQLVESGGGLVQPGGSLRLSCAASGTIIPRSAMGWYRQATGKERELVAAISQRGGSTFYADSVKWRFTISRDNAKNTVYLQMNRLKPEVTAVYYCAADPGVQRGHIDRMYYWGQGTQVTVSS | high polyreactivity
QVQLVESGGGLVQAGGSLRLSCAASGFIFPGYTMGWYRQAPGKERELVAAISRGSSTYYADSVKRRFTISRDNAKNSVYLQMNSLKPEDTAVYYCAADYSYIYGFDYWGQGTQVTVSS | low polyreactivity
QVQLVESGGGLVQAGGSLRLSCAASGSIFAQNAIGWYRQAPGKERELVAAIDLNGGSTYYADSVKGRFTISRDNAKNTVYLQLNSQKPEDTAVYYCAVYYGHSSVIRSSPEYDSWGQGTQVTVSS | low polyreactivity
QVQLVESGGGLVQGGGSLRLSCAASGFTFGRYTMGWYRQAPGKERELVAPISWSGGSTFYADSVKGRFTISRDNAQNTVYFQMNSLKPEDTAVYNCDTRLKSVSGGYNYWGQGTQVTVSS | high polyreactivity
QVQLEESGGGLVQAGGSLRLSCAASGRIFVSNDMGWYRQAPGKERELVAAITWSDDSTHYADSVKGRFTISRDYAKNTVYLQRNSVKPEDTAVYYCNKQRYYSTWRYDYWGQGTQVTVSS | low polyreactivity
